Bridge positions count the residues as written; N and C are the ends. * marks the point of attachment. Propargyl = C#CC*
T1: NHP-OTV16 peptide (SEQ ID NO:5) (Macaca mulatta, disulfide 1-18)
T1 construct: cyclic
T1 peptide: Propargyl-CYRPVDGLPPFKMEKTEC-NH2

T2: OTV16 peptide (SEQ ID NO:3) (human, disulfide 1-18; SMILES …)
T2 construct: cyclic; Coated on ELISA plates
T2 peptide: Propargyl-CYRPVDGLPPFKMEKTGC-NH2

T3: mOTV16 peptide (SEQ ID NO:9) (mouse, disulfide 1-19)
T3 construct: cyclic
T3 peptide: Propargyl-CYRPVEGLPPYKLNNTVGC-NH2

T4: rOTV16 peptide (SEQ ID NO:7) (rat, disulfide 1-18)
T4 construct: cyclic
T4 peptide: Propargyl-CYRPVEGLPPYKLKNTGC-NH2


Legend:
[1] = biological target: T1, NHP-OTV16 peptide (SEQ ID NO:5); test: peptide ELISA of B-cell clone supernatant
Protocol: (§1) FIG. 5: Peptide ELISA of B-cell clone supernatants. Antibody in supernatant from B-cell clones was tested for binding to OTV16 peptide, NHP-OTV16 peptide and rOTV16 peptide respectively. B-cell supernatants were incubated for 1 hr in 96-well plates coated with the respective peptide. Plates were washed and bound antibody was detected using anti-rabbit IgG conjugated to horse radish peroxidase with absorbance measured at 450 nm. Serum from immunized rabbit was used as a positive binding control. B-cell culture medium (antibody-free) was used as a negative control. N=1.
(§2) 96-well plates suitable for ELISA were coated with respective peptide (1 μg/mL) in PBS and incubated 1 h at 37° C. or overnight at 4° C. The peptides used to coat the plates were OTV16 (SEQ ID NO:3), NHP-OTV16 (SEQ ID NO:5), and rOTV16 (SEQ ID NO:7) (described below). Plates were washed with wash buffer and incubated 1 h at 37° C. in the presence of blocking buffer (PBS, 0.5% BSA, 0.05% Tween 20, pH 7.4). B-cell supernatants were added and incubated for 1 h at 37° C. Plates were washed with wash buffer and Mouse Anti-Rabbit IgG Fc Antibody conjugated to horseradish peroxidase (Genscript, cat #A01856) was added and incubated for 30 minutes, 37° C. Plates were washed with wash buffer followed by addition of substrate solution, 100 μl/well and incubated for 13-20 minutes at RT. Reaction was stopped by adding 100 μl/well of stop solution. Absorbance was measured at 450 nm. Serum from immunized rabbit known to contain antibody that binds to OTV16 peptide was used as a positive control. B-cell culture medium (antibody-free) was used as a negative control.

[2] = biological target: T2, OTV16 peptide (SEQ ID NO:3); test: peptide ELISA of purified recombinant monoclonal antibody
Protocol: (§3) FIG. 6: Peptide ELISA of purified recombinant monoclonal antibodies. Monoclonal antibodies were tested for binding to OTV16 peptide, NHP-OTV16 peptide, mOTV16 peptide and rOTV16 peptide. Non-specific binding was determined using wells coated with bovine serum albumin (BSA). Serum from immunized rabbit (known to contain OTV16-binding antibody) was used as a positive binding control. Serial dilutions of antibody were incubated for 1 hr in ELISA plates coated with peptide or BSA. Plates were washed, and bound antibody was detected using anti-rabbit IgG conjugated to […] with absorbance measured at 405 nm.
(§4) 96-well plates suitable for ELISA were coated with peptide (1 μg/mL) in PBS and incubated 1 h at 37° C. The peptides used to coat the plates were OTV16 (SEQ ID NO:3; described above), NHP-OTV16 (SEQ ID NO:5; described above), rOTV16 (SEQ ID NO:7; described above) and mOTV16 (SEQ ID NO:9; described below). Plates were washed with PBS containing 0.05% Tween and incubated 1 h at 37° C. in the presence of blocking buffer (PBS, 0.5% BSA, 0.05% Tween 20, pH 7.4). A serial dilution of recombinant antibodies of the invention (23B9-1 or 24C6-1 or 27A2-1 or 29B5-1 or 2B₁₁-1 or 33B6-1 or 4D11-1 or 54F1-1 or 69H7-1 or 75C9-1 or 9E4-1) was added in blocking buffer and incubated for 1 h at RT. Plates were washed with PBS containing 0.05% Tween and a secondary antibody (anti-rabbit IgG conjugated to Alkaline Phosphatase (DAKO)), was added and incubated for 1 h at RT. Plates were washed with PBS containing 0.05% Tween followed by addition of 1 mg/mL pNPP (p-nitrophenyl […] phosphate) in pNPP buffer. Absorbance was measured at 405 nm. Serum from rabbit immunized with OTV16 peptide was used as a positive control. Non-specific binding, e.g. to plastic, was determined using wells coated with bovine serum albumin (BSA) protein.

[3] = biological target: T2, OTV16 peptide (SEQ ID NO:3); test: peptide ELISA of B-cell clone supernatant
Protocol: as §1, §2

[4] = biological target: T3, mOTV16 peptide (SEQ ID NO:9); test: peptide ELISA of purified recombinant monoclonal antibody
Protocol: as §3, §4

[5] = biological target: T4, rOTV16 peptide (SEQ ID NO:7); test: peptide ELISA of B-cell clone supernatant
Protocol: as §1, §2

Binder | binding result [1] | binding result [2] | binding result [3] | binding result [4] | binding result [5]
33B6-1 (antibody, V domains shown, Recombinant rabbit IgG with rabbit kappa light chain, made in HEK cells; Also tested as B-cell clone supernatant; also called monoclonal antibody 33B6-1) VH: QSLEESGGRLVTPGTPLTLTCTASGLSLSSYDMNWVRQAPGKGLEYIGFINTRGSAYYASWATGRFTISRTSTTVDLTMTSPTTEDTATYFCARDIPDWDIGHVFDLWGPGTLVTVSS VL: AYDMTQTPASVEVTMGGAVTIKCQASQSISNELSWYQQKPGQRPRLLIYQASALASGVPSRFKGSGYGTQFTLTISDLECADAATYYCQQGYTSNNIVNAFGGGTEVVVK | binds | binds |  |  | 
27A2-1 (antibody, V domains shown, Recombinant rabbit IgG with rabbit kappa light chain, made in HEK cells; Also tested as B-cell clone supernatant; also called monoclonal antibody 27A2-1) VH: QSLEEAGGRLVTPGGSLTLTCTASGLSLSSYDMNWVRQAPGKGLEFIGFINTRGTAYYASWAKGRFTISRTSTTVDLTMTSPTTEDTATYFCARDIPDWNIGHVFDLWGPGTLVTVSS VL: AYDMTQTPASVEVTMGGAVTINCQASQSITNELAWYQQKPGQRPRLLIYQASALASGVPSRFKGSGYGTQFTLTISDLECADAATYYCQQGYTSNNIVNAFGGGTEVVVK | binds | binds |  |  | 
69H7-1 (antibody, V domains shown, Recombinant rabbit IgG with rabbit kappa light chain, made in HEK cells; Also tested as B-cell clone supernatant; also called monoclonal antibody 69H7-1) VH: QSLEESGGRLVTPGTPLTLTCTASGLSLSRYDMNWVRQAPGKGLEYIGFINTRGSTYYATWTTGRFTISRTSTTVDLTMTSPTTEDTATYFCARDIPDWDIGHVFDLWGPGTLVTVSS VL: AYDMTQTPASVSGAVGGTVTINCQASQSISNELSWYQQKPGQRPRLLIYQASTLASGVPSRFKGSGYGTQFTLTISDLECADAATYYCQQGYTSNNIVNAFGGGTEVVVK | binds |  | binds |  | 
23B9-1 (antibody, V domains shown, Recombinant rabbit IgG with rabbit kappa light chain, made in HEK cells; Also tested as B-cell clone supernatant; also called monoclonal antibody 23B9-1) VH: QSVEESGGRPVTPGTPLTLTCTVSGIDLSRYAVDWVRQAPGKGLEWIGIILTSGKISYASWVKGRFTISKTSTTVDLKMTSLTTEDTATYFCARHFDLWGQGTLVTVSS VL: QVLTQTASPVSAAVGGTVTINCQSSQSVYNNNNLAWYQQKPGQPPKLLIYDSSKLESGVPSRFKGSGSGTQFTLIISDLECDDAATYYCAGGYSGVIASFGGGTEVVVK | binds |  | binds | binds | 
2B11-1 (antibody, V domains shown, Recombinant rabbit IgG with rabbit kappa light chain, made in HEK cells; Also tested as B-cell clone supernatant; also called monoclonal antibody 2B11-1) VH: QSVGESGGRLVTPGTPLTLTCTVSGIDLSIYPVDWVRQAPGKGLEWIGIINTNGNTYYANWAKGRFTISKTSSTTVDLQVTSLTTEDTATYFCARHFDLWGQGTLVTVSS VL: QVLTQTASPVSAAVGGTVTINCQSSQTVYNNNNLAWYQQKSGQPPKLLIYDSSKLESGVPSRFSGSGSGTQFTLTISDLECDDAATYYCAGGYGGWIAAFGGGTEVVVK | binds | binds |  | binds | binds
54F1-1 (antibody, V domains shown, Recombinant rabbit IgG with rabbit kappa light chain, made in HEK cells; Also tested as B-cell clone supernatant; also called monoclonal antibody 54F1-1) VH: QSVGESGGRLVTPGTPLTLTCTVSGIDLSVYPVDWVRQAPGKGLEWIGIISTNGNTYYANWAKGRFTISKTSSTTVDLKMTSLTTEDTATYFCARHFDLWGQGTLVTVSS VL: QVLTQTASPVSAAVGGTVTINCQSSQTVYNNNNLAWYQQKSGQPPKLLIYDSFKLESGVPSRFSGSGSGTQFTLTISDLECDDAATYYCAGGYAGWIAAFGGGTEVVVK | binds | binds |  | binds | binds
9E4-1 (antibody, V domains shown, Recombinant rabbit IgG with rabbit kappa light chain, made in HEK cells; Also tested as B-cell clone supernatant; also called monoclonal antibody 9E4-1) VH: QSLEESGGRLVTPGTPLTLTCTVSGIDLSSVTMGWVRQAPGKGLEYIGVIVPRGATYYANWVKGRFTISKTSTTVDLKMTSLTTEDTATYFCARDGDTGNIYGYYFDIWGPGTLVTVSL VL: AYDMTQTPASVSEPVGGTVTIKCQASQSISTALAWYQQKSGQRPKLLIYDAWKLASGVSSRFKGSGSGTQFTLTISGVQCDDAATYYCQQGYSGNNVDNVFGGGTEVVVS | binds |  | binds | binds | 

Now from value to binder:

binding result [1] | binding result [2] | binding result [3] | binding result [4] | binding result [5] | Binder
binds | binds |  |  |  | 29B5-1 (antibody, V domains shown, Recombinant rabbit IgG with rabbit kappa light chain, made in HEK cells; Also tested as B-cell clone supernatant; also called monoclonal antibody 29B5-1) VH: QSLEESGGRLVTPGTPLTLTCTVSGIDLSSVTMGWVRQAPGKGLEYIGVITTIRTTYYASWVNGRFTISQTSTTVDLKMTSLTTEDTATYFCARDGDTTNTYGYYFDIWGPGTLVTVSL VL: AVVMTQTPASVEVAVGGTVTIKCQASQSISSYLAWYQQKPGQPPKLLIYKASTLASGVPSRFKGSGSGTQFTLTISGVQCDDAATYYCQQGYTGNNVDNIFGGGTEVVVK
binds | binds |  |  |  | 4D11-1 (antibody, V domains shown, Recombinant rabbit IgG with rabbit kappa light chain, made in HEK cells; Also tested as B-cell clone supernatant; also called monoclonal antibody 4D11-1) VH: QEQVVESGGGLVQPEGSLTLTCTASGFDFSSNAMCWVRQAPGKGLAWIGCIGTGSSGSTYYASWARGRFTISKTSSTTVTLQMTSLTAADTATYFCPRDINAYGNDGWSFNLWGPGTLVTVSS VL: AYDMTQTPASVEVAVGGTVTIKCQASQSIVGWLSWYQQKPGQPPKLLIYRASTLASGVPSRFKGSGSGTEFTLTISDLECDDAATYYCQQGYTFNNVDNPFGGGTEVLVK
binds | binds |  |  |  | 24C6-1 (antibody, V domains shown, Recombinant rabbit IgG with rabbit kappa light chain, made in HEK cells; Also tested as B-cell clone supernatant; also called monoclonal antibody 24C6-1) VH: QSVEESGGRLVTPGTPLTLTCTVSGFSLSTYAMAWVRQAPGKGLEWIGIIGQSSKTYYAIWAKGRFTISRTSTTVDLKIPSPTTEDTATYFCARGSTYVLDMWGPGTLVTVSL VL: AVVMTQTASPVSAAVGGTVTIKCQASQSISSYLAWYQQKPGQPPKLLIADASKLVSGVPSRFKGSGSGTEFTLTISDLECADAATYYCQNYYGSSDFGTFGGGTEVVVE
binds |  | binds |  |  | 75C9-1 (antibody, V domains shown, Recombinant rabbit IgG with rabbit kappa light chain, made in HEK cells; Also tested as B-cell clone supernatant; also called monoclonal antibody 75C9-1) VH: QEQVVESGGGLVQPEGSLTLTCTASGFSFNNNAMCWVRQAPGKGLEWIGCIGTAASGNSYYASWAKGRFTISRTSSTTVTLQMTSLTAADTATYFCPRDINAYGNDGWSFKLWGPGTLVTVSS VL: AFELTQTPSSVEAAVGGTVTIKCQASQSINGWLSWYQQKPGQPPKLLIYRASPVASGVPSRFKGSGSGTEYTLTISGVQCDDAATYYCQQGYTFNNVDDPFGGGTEVVVK
